Experimental data: the supplement of paper PMC9876800

Test system: peptide library, one residue held at a place counted from the S/T acceptor
Assay: relative phosphorylation of the sub-library (ratio to the mean residue at this position); higher = residue favoured
Conditions: human
How it was run: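 In 384-well plates, purified recombinant kinases (human or orthologue constructs) were incubated for 90 min under kinase-specific conditions with 50 μM biotinylated degenerate peptide sub-libraries and 50 μM ATP spiked with γ-32P-ATP. Each sub-library fixed a single residue at one position around a central Ser/Thr. Relative sub-library phosphorylation, measured by phosphorimaging and densitometry of streptavidin membrane spots, is given as a ratio to the mean residue at that position.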

Sequence of PASK, construct: aa949-1323 (Q96RG2 949-1323, looked up): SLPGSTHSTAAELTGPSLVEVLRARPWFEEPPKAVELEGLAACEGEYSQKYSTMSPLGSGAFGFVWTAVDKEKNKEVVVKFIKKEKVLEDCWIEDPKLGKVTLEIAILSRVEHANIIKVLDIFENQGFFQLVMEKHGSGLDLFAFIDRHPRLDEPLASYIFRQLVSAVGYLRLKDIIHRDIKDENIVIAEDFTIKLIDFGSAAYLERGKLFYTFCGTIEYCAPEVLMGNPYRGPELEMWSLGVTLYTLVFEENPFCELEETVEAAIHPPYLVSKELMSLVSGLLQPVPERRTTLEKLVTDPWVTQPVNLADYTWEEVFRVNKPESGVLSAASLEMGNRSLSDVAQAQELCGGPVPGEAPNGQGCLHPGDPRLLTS
Sequence of MAPK11, construct: Full length (Q15759 whole entry, looked up): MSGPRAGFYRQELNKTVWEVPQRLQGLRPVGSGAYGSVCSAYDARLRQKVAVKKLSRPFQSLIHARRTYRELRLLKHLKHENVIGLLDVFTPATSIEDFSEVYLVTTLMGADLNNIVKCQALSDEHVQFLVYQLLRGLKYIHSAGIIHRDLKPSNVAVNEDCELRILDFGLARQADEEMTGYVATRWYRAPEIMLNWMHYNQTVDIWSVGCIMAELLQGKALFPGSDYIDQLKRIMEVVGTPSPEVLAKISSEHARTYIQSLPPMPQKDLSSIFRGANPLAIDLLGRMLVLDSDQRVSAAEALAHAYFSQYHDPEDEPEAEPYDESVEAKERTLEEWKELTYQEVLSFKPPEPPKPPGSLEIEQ
Sequence of MAP4K1, construct: Full length (Q92918 whole entry, looked up): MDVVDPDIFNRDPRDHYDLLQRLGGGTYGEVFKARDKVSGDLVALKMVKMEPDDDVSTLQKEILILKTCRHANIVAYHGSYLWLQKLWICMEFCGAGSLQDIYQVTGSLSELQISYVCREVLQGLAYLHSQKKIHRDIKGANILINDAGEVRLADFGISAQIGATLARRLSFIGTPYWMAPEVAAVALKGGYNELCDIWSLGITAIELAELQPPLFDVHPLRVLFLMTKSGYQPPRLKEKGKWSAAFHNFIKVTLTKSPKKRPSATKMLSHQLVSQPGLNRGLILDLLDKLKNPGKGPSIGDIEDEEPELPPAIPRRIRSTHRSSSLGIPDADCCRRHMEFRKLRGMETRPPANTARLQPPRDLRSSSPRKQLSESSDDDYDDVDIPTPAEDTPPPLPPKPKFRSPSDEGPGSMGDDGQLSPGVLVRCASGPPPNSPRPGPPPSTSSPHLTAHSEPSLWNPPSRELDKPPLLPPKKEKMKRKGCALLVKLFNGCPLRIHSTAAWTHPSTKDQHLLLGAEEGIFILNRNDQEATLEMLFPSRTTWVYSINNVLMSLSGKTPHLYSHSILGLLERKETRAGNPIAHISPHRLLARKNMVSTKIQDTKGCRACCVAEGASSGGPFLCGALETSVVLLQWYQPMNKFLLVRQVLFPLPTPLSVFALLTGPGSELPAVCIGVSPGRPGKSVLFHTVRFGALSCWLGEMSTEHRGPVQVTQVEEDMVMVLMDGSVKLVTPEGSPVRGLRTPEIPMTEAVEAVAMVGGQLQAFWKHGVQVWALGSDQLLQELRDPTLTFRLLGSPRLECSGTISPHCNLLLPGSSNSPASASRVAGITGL
Sequence of DCLK2, construct: aa1-690 (Q8N568 1-690, looked up): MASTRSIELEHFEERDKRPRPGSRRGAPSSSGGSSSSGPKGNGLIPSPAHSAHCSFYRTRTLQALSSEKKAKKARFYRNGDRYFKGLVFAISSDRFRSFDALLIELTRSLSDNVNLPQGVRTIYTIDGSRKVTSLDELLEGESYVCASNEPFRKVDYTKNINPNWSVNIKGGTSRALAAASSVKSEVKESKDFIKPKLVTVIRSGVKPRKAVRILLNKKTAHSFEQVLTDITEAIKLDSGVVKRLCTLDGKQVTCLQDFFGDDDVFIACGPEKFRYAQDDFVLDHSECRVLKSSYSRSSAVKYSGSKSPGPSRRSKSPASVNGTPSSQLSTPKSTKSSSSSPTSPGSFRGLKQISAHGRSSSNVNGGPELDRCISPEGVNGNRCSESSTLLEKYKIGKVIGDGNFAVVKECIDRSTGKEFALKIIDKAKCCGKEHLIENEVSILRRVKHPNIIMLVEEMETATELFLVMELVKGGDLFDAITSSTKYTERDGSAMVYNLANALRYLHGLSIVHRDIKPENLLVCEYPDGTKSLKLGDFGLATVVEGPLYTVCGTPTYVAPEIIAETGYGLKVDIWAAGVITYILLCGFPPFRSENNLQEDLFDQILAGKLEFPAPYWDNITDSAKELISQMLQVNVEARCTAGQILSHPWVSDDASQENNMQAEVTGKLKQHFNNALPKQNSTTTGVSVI

DCLK2, construct: aa1-690 (from UniProt Q8N568)
relative phosphorylation
Conditions | at +1 | at +2 | at +3 | at +4 | at -1 | at -2 | at -3 | at -4 | at -5
A fixed | 0.573 | 0.702 | 0.791 | 0.84 | 0.731 | 1.26 | 0.798 | 1.03 | 0.816
D fixed | 0.373 | 0.373 | 0.673 | 0.855 | 0.669 | 0.725 | 0.372 | 0.573 | 0.437
E fixed | 0.414 | 0.304 | 0.701 | 0.838 | 0.436 | 1.56 | 0.427 | 0.748 | 0.4
F fixed | 3.73 | 1.72 | 1.17 | 1.22 | 0.853 | 0.659 | 0.406 | 0.988 | 1.55
G fixed | 0.532 | 0.412 | 0.887 | 0.922 | 1.31 | 1.08 | 0.589 | 1.11 | 0.76
H fixed | 0.815 | 1.63 | 1.19 | 0.987 | 1.2 | 0.934 | 0.831 | 1 | 0.907
I fixed | 0.918 | 1.35 | 0.815 | 0.917 | 0.522 | 0.437 | 0.33 | 0.885 | 1.1
K fixed | 1.18 | 0.639 | 1.35 | 1.28 | 2.27 | 1.9 | 3.49 | 1.8 | 1.36
L fixed | 0.882 | 1.26 | 1.09 | 1.16 | 0.884 | 0.687 | 0.436 | 0.99 | 1.47
M fixed | 1.4 | 1.07 | 1.02 | 1.12 | 0.804 | 0.909 | 0.484 | 0.947 | 1.15
N fixed | 0.77 | 0.49 | 0.91 | 0.93 | 1.16 | 1.1 | 0.581 | 0.784 | 0.649
P fixed | 0.371 | 0.522 | 0.727 | 1.19 | 0.981 | 0.423 | 0.701 | 0.977 | 0.946
Q fixed | 0.915 | 0.531 | 0.947 | 1.01 | 0.863 | 1.79 | 0.787 | 1.04 | 0.802
R fixed | 0.903 | 0.554 | 1.37 | 1.05 | 2.06 | 1.65 | 5.46 | 1.32 | 1.44
V fixed | 0.702 | 1.1 | 0.923 | 0.758 | 0.554 | 0.462 | 0.315 | 0.941 | 0.923
W fixed | 1.22 | 1.42 | 1.27 | 1.09 | 0.621 | 0.725 | 0.549 | 0.914 | 1.17
Y fixed | 1.3 | 2.91 | 1.17 | 0.846 | 1.09 | 0.695 | 0.447 | 0.942 | 1.12
pThr fixed | 0.782 | 0.935 | 1.04 | 0.993 | 0.455 | 0.391 | 0.374 | 0.652 | 0.506
pTyr fixed | 0.776 | 7.04 | 1.07 | 0.687 | 0.515 | 0.367 | 0.298 | 0.548 | 0.576

MAP4K1, construct: Full length (from UniProt Q92918)
relative phosphorylation
Conditions | at +1 | at +2 | at +3 | at +4 | at -1 | at -2 | at -3 | at -4 | at -5
A fixed | 0.465 | 0.82 | 0.882 | 0.928 | 0.991 | 1.1 | 0.946 | 0.951 | 1.07
D fixed | 0.192 | 0.786 | 0.471 | 0.756 | 0.585 | 0.362 | 0.52 | 0.653 | 0.679
E fixed | 0.199 | 0.706 | 0.454 | 0.629 | 0.441 | 0.302 | 0.487 | 0.699 | 0.613
F fixed | 1.23 | 0.581 | 0.893 | 0.879 | 0.987 | 1.36 | 0.908 | 1.14 | 1.11
G fixed | 0.58 | 0.957 | 0.933 | 1.13 | 1.79 | 1.06 | 1.21 | 1.29 | 1.15
H fixed | 0.575 | 1.13 | 1.04 | 1.08 | 1.37 | 1.36 | 1.3 | 1.08 | 1.07
I fixed | 1.91 | 0.442 | 0.571 | 0.806 | 0.342 | 0.646 | 0.545 | 0.706 | 0.763
K fixed | 0.56 | 2.51 | 1.8 | 1.65 | 1.24 | 1.11 | 1.93 | 1.26 | 1.49
L fixed | 3.52 | 0.604 | 0.724 | 0.863 | 1.17 | 0.667 | 0.694 | 0.798 | 0.746
M fixed | 2.94 | 0.695 | 0.763 | 0.861 | 1.26 | 0.794 | 0.823 | 0.896 | 0.934
N fixed | 0.442 | 0.974 | 0.925 | 0.978 | 1.3 | 0.931 | 0.928 | 0.849 | 0.88
P fixed | 0.396 | 1.17 | 1.13 | 1.02 | 0.534 | 0.62 | 0.766 | 0.955 | 1.09
Q fixed | 0.5 | 0.869 | 0.837 | 0.958 | 0.745 | 0.679 | 0.904 | 0.888 | 0.83
R fixed | 0.573 | 2.9 | 2.98 | 1.62 | 1.62 | 1.6 | 2.01 | 1.39 | 1.34
V fixed | 0.584 | 0.521 | 0.654 | 0.815 | 0.438 | 0.798 | 0.634 | 0.828 | 0.895
W fixed | 1.45 | 0.627 | 0.991 | 1.14 | 0.909 | 1.51 | 1.28 | 1.37 | 1.15
Y fixed | 0.877 | 0.706 | 0.942 | 0.887 | 1.27 | 2.1 | 1.11 | 1.24 | 1.2
pThr fixed | 1.32 | 1.33 | 1.14 | 0.786 | 0.699 | 1.1 | 1.22 | 1.25 | 1.32
pTyr fixed | 0.373 | 0.593 | 0.669 | 0.602 | 0.86 | 0.653 | 0.977 | 0.948 | 1.04

PASK, construct: aa949-1323 (from UniProt Q96RG2)
relative phosphorylation
Conditions | at +1 | at +2 | at +3 | at +4 | at -1 | at -2 | at -3 | at -4 | at -5
A fixed | 0.999 | 0.848 | 0.766 | 0.739 | 0.615 | 1.36 | 0.758 | 0.939 | 0.757
D fixed | 1.04 | 2.11 | 1.66 | 1.65 | 1.2 | 0.778 | 0.63 | 1 | 0.896
E fixed | 1.4 | 1.34 | 1.35 | 1.43 | 0.919 | 0.762 | 0.711 | 1.55 | 0.776
F fixed | 1.07 | 0.829 | 1.14 | 0.825 | 0.491 | 0.814 | 0.565 | 0.779 | 0.72
G fixed | 1.11 | 0.967 | 0.808 | 1.03 | 0.746 | 1.19 | 0.864 | 0.804 | 0.811
H fixed | 1.21 | 1.25 | 1.14 | 1.12 | 0.903 | 1.33 | 0.927 | 1.04 | 2.98
I fixed | 0.665 | 0.664 | 0.583 | 0.748 | 0.384 | 0.493 | 0.425 | 0.663 | 0.742
K fixed | 0.944 | 0.698 | 0.956 | 0.853 | 2.22 | 1.42 | 1.34 | 1.39 | 1.33
L fixed | 0.665 | 0.65 | 0.784 | 0.732 | 0.609 | 0.746 | 0.484 | 0.723 | 1.03
M fixed | 0.914 | 0.758 | 0.823 | 0.764 | 0.665 | 0.774 | 0.55 | 0.829 | 0.909
N fixed | 1.09 | 1.49 | 1.03 | 1.08 | 1.59 | 1.16 | 0.623 | 0.995 | 0.884
P fixed | 0.623 | 0.796 | 1.2 | 1.41 | 2.89 | 1.54 | 1.83 | 1.3 | 0.66
Q fixed | 0.932 | 1.14 | 0.996 | 1.07 | 1.07 | 1.08 | 0.764 | 1.05 | 0.788
R fixed | 0.787 | 0.825 | 0.888 | 0.65 | 0.954 | 1.38 | 4.8 | 1.42 | 1.39
V fixed | 0.854 | 0.71 | 0.591 | 0.668 | 0.447 | 0.638 | 0.433 | 0.68 | 0.625
W fixed | 1.26 | 0.953 | 1.25 | 1.05 | 0.53 | 0.704 | 0.664 | 0.944 | 0.927
Y fixed | 1.45 | 0.966 | 1.04 | 1.18 | 0.774 | 0.835 | 0.635 | 0.9 | 0.775
pThr fixed | 3.06 | 2.97 | 2.92 | 2.7 | 1.02 | 1.43 | 1.04 | 1.25 | 1.11
pTyr fixed | 2.5 | 2.53 | 3.07 | 2.25 | 1.58 | 1.41 | 1.28 | 1.98 | 1.59

MAPK11, construct: Full length (from UniProt Q15759)
relative phosphorylation
Conditions | at +1 | at +2 | at +3 | at +4 | at -1 | at -2 | at -3 | at -4 | at -5
A fixed | 1.65 | 1.14 | 1.35 | 0.935 | 1.22 | 0.953 | 1.26 | 1.14 | 1.12
D fixed | 0.136 | 0.985 | 0.947 | 0.919 | 0.745 | 0.501 | 0.917 | 1.25 | 1.06
E fixed | 0.12 | 0.81 | 0.98 | 0.818 | 0.765 | 0.338 | 1.03 | 1.13 | 0.921
F fixed | 0.268 | 0.828 | 0.913 | 1.27 | 0.852 | 0.614 | 0.708 | 0.766 | 0.944
G fixed | 0.841 | 1.14 | 1.08 | 1.19 | 1.24 | 0.73 | 1.53 | 1.21 | 1.22
H fixed | 0.227 | 1.1 | 0.959 | 1.15 | 1.21 | 0.572 | 0.902 | 0.941 | 1.12
I fixed | 0.304 | 1.15 | 1.11 | 1.05 | 0.676 | 1.16 | 1.04 | 0.885 | 0.88
K fixed | 0.209 | 1.12 | 0.583 | 0.818 | 0.842 | 0.461 | 0.722 | 0.961 | 0.921
L fixed | 0.337 | 1.04 | 1.01 | 1.14 | 1.37 | 1.46 | 1.09 | 0.982 | 1.08
M fixed | 0.26 | 0.951 | 0.852 | 1.08 | 1.67 | 1.22 | 0.988 | 1.06 | 0.941
N fixed | 0.141 | 0.874 | 0.632 | 0.764 | 0.705 | 0.585 | 0.886 | 0.952 | 0.956
P fixed | 11.4 | 0.762 | 1.95 | 1.01 | 1.39 | 5.14 | 1.61 | 1.29 | 1.37
Q fixed | 0.185 | 0.942 | 0.71 | 0.859 | 1.26 | 0.633 | 1.05 | 0.94 | 0.902
R fixed | 0.206 | 1.08 | 0.676 | 0.871 | 0.847 | 0.505 | 0.835 | 0.823 | 0.834
V fixed | 0.289 | 1.24 | 1.25 | 0.995 | 0.749 | 1.16 | 0.954 | 0.896 | 0.839
W fixed | 0.206 | 0.792 | 0.975 | 1.04 | 0.618 | 0.437 | 0.723 | 0.946 | 0.913
Y fixed | 0.2 | 1.05 | 1.02 | 1.1 | 0.833 | 0.53 | 0.748 | 0.83 | 0.981
pThr fixed | 0.405 | 1.32 | 1.18 | 0.795 | 0.364 | 0.617 | 1.1 | 1.16 | 1.15
pTyr fixed | 0.589 | 0.741 | 0.996 | 0.757 | 0.653 | 0.396 | 0.932 | 1.04 | 1.05
